Reference: the supplement of paper PMC10567573

B1: DLC1 (parent)
chain: KRSWEEHVTHWMGQPFNSDDRNTA

Variants of: B1
Experiment: protein stability index of a GFP-peptide fusion (GPS, HEK-293T) (PSI 1-6); higher = more stable
Settings: c terminus: a fixed tail appended
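Further: lentivirally expressed fusions sorted by FACS into six bins by GFP to DsRed ratio, PSI derived from sequencing read proportions per bin multiplied by bin number.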

Variant	protein stability index
KRSNEEHVTHWMGQPFNSDDRNTA [W4N]	4.95
KRSREEHVTHWMGQPFNSDDRNTA [W4R]	4.62
KRSCEEHVTHWMGQPFNSDDRNTA [W4C]	4.2
KRSFEEHVTHWMGQPFNSDDRNTA [W4F]	4.09
KRSEEEHVTHWMGQPFNSDDRNTA [W4E]	5.05
KRSWEEHVTHWMGQPRNSDDRNTA [F16R]	2.27
KRSWEEHVTHWMGQPHNSDDRNTA [F16H]	2.77
KRSWEEHVTHWMGQPDNSDDRNTA [F16D]	2.59
KRSWEEHVTHWMGQPINSDDRNTA [F16I]	2.63
KRSWEEHVTHWMGQPTNSDDRNTA [F16T]	2.37
KRSWEEHVTHWMGQPMNSDDRNTA [F16M]	2.94
KRSWEEHVTHWMGQPVNSDDRNTA [F16V]	3.34
KRSWEEHVTIWMGQPFNSDDRNTA [H10I]	1.95
KRSWEEHVTSWMGQPFNSDDRNTA [H10S]	2.73
KRSWEEHVTGWMGQPFNSDDRNTA [H10G]	2.57
KRSWEEHVTDWMGQPFNSDDRNTA [H10D]	3.39
KRSWEEHVTKWMGQPFNSDDRNTA [H10K]	2.53
KRSWEEHVTRWMGQPFNSDDRNTA [H10R]	2.19
KRSWEEHVTEWMGQPFNSDDRNTA [H10E]	3.1
KRSWEEHITHWMGQPFNSDDRNTA [V8I]	2.81
KRSWEEHYTHWMGQPFNSDDRNTA [V8Y]	3.99
KRSWEEHTTHWMGQPFNSDDRNTA [V8T]	3.84
KRSWEEHWTHWMGQPFNSDDRNTA [V8W]	3.39
KRSWEEHQTHWMGQPFNSDDRNTA [V8Q]	3.86

Variant	protein stability index
KRSWEEHNTHWMGQPFNSDDRNTA [V8N]	4.13
KRSWEEHKTHWMGQPFNSDDRNTA [V8K]	4.26
KRSWEEHPTHWMGQPFNSDDRNTA [V8P]	4.21
KRSWEEHHTHWMGQPFNSDDRNTA [V8H]	4.04
KRSWEHHVTHWMGQPFNSDDRNTA [E6H]	3.36
KRSWEVHVTHWMGQPFNSDDRNTA [E6V]	2.53
KRSWEGHVTHWMGQPFNSDDRNTA [E6G]	3.48
KRSWEYHVTHWMGQPFNSDDRNTA [E6Y]	2.31
KRSWESHVTHWMGQPFNSDDRNTA [E6S]	3.24
KRSWEFHVTHWMGQPFNSDDRNTA [E6F]	2.27
KRSWEQHVTHWMGQPFNSDDRNTA [E6Q]	3.27
KRSWEEHVTHYMGQPFNSDDRNTA [W11Y]	2.82
KRSWEEHVTHPMGQPFNSDDRNTA [W11P]	3.54
KRSWEEHVTHLMGQPFNSDDRNTA [W11L]	2.85
KRSWEEHVTHRMGQPFNSDDRNTA [W11R]	3.29
KRSWEEHVTHWMDQPFNSDDRNTA [G13D]	2.19
KRSWEEHVTHWMFQPFNSDDRNTA [G13F]	1.82
KRSWEEHVTHWMKQPFNSDDRNTA [G13K]	2.13
KRSWEEHVTHWMPQPFNSDDRNTA [G13P]	2.88
KRSWEEHVTHWMTQPFNSDDRNTA [G13T]	2.18
KRSWEEHVTHWMAQPFNSDDRNTA [G13A]	2.53
KRSWEEHVTHWMGQPFMSDDRNTA [N17M]	2.15
KRSWEEHVTHWMGQPFGSDDRNTA [N17G]	2.44
KRSWEEHVTHWMGQPFLSDDRNTA [N17L]	2.44

Variant	protein stability index
KRSWEEHVTHWMGQPFHSDDRNTA [N17H]	2.73
KRSWEEHVTHWMGQPFWSDDRNTA [N17W]	2.77
KRSWEEHVTHWMGQPFCSDDRNTA [N17C]	2.23
KRSWEEHVTHWMGQPFYSDDRNTA [N17Y]	2.36
KRSWEEHVTHWMGQPFSSDDRNTA [N17S]	2.63
KRSWEESVTHWMGQPFNSDDRNTA [H7S]	3.71
KRSWEENVTHWMGQPFNSDDRNTA [H7N]	4.35
KRSWEEIVTHWMGQPFNSDDRNTA [H7I]	3.75
KRSWEEKVTHWMGQPFNSDDRNTA [H7K]	3.44
KRSWEEYVTHWMGQPFNSDDRNTA [H7Y]	2.29
KRSWEELVTHWMGQPFNSDDRNTA [H7L]	2.64
KRRWEEHVTHWMGQPFNSDDRNTA [S3R]	3.34
KRMWEEHVTHWMGQPFNSDDRNTA [S3M]	3.35
KRVWEEHVTHWMGQPFNSDDRNTA [S3V]	3.94
KRYWEEHVTHWMGQPFNSDDRNTA [S3Y]	3.01
KRLWEEHVTHWMGQPFNSDDRNTA [S3L]	3.37
KRQWEEHVTHWMGQPFNSDDRNTA [S3Q]	3.54
KRAWEEHVTHWMGQPFNSDDRNTA [S3A]	3.44
KRCWEEHVTHWMGQPFNSDDRNTA [S3C]	2.24
KRSWEEHVTHWMGQPFNSDERNTA [D20E]	2.87
KRSWEEHVTHWMGQPFNSDWRNTA [D20W]	1.59
KRSWEEHVTHWMGQPFNSDMRNTA [D20M]	1.91
KRSWEEHVTHWMGQPFNSDLRNTA [D20L]	2.48
KRSWEEHVTHWMGQPFNSDPRNTA [D20P]	2.76

Variant	protein stability index
KRSWEEHVTHWMGQPFNSDARNTA [D20A]	3.41
KRSWEEHVTHWMGQPFNSDCRNTA [D20C]	2.19
KRSWEEHVTHWMGQPFNSDSRNTA [D20S]	1.91
KRSWEEHVTHWMGQPFNSDKRNTA [D20K]	2.51
KRSWEEHVTHWMGQPFNSDYRNTA [D20Y]	1.77
KRSWEEHVGHWMGQPFNSDDRNTA [T9G]	3.14
KRSWEEHVRHWMGQPFNSDDRNTA [T9R]	3.1
KRSWEEHVYHWMGQPFNSDDRNTA [T9Y]	3.04
KRSWEEHVLHWMGQPFNSDDRNTA [T9L]	2.53
KRSWEEHVIHWMGQPFNSDDRNTA [T9I]	2.62
KRSWEEHVFHWMGQPFNSDDRNTA [T9F]	2.11
KRSWEEHVSHWMGQPFNSDDRNTA [T9S]	2.38
KRSWEEHVCHWMGQPFNSDDRNTA [T9C]	2.6
KRSWEEHVTHWMGQPFNSDDRMTA [N22M]	2.28
KRSWEEHVTHWMGQPFNSDDRHTA [N22H]	2.04
KRSWEEHVTHWMGQPFNSDDRVTA [N22V]	2.49
KRSWEEHVTHWMGQPFNSDDRYTA [N22Y]	2.09
KRSWEEHVTHWMGQPFNSDDRATA [N22A]	1.81
KRSWEEHVTHWMGQPFNSDDRCTA [N22C]	1.94
KRSWEEHVTHWMGQPFNSDDRQTA [N22Q]	2.67
KRSWEEHVTHWMGQPFNSDDRWTA [N22W]	1.7
KRSWEEHVTHWMGQPFNSDDRFTA [N22F]	2.04
